Measured values from patent publication US20200247894A1 (Regeneron, published 2020).

T1: D1 domain of human IL-2Rγ extracellular domain expressed with a C-terminal myc-myc-hexahistidine tag (human)
T1 construct: also called human IL2Rγ domain 1
T1 chain: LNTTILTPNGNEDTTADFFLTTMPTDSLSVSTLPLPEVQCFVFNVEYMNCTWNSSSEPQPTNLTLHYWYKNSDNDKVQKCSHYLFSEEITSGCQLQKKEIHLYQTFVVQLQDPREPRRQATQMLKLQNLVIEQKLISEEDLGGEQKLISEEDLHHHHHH

T2: D2 domain of human IL2Rγ extracellular domain expressed with a C-terminal myc-myc-hexahistidine tag (human)
T2 construct: also called human IL2Rγ domain 2
T2 chain: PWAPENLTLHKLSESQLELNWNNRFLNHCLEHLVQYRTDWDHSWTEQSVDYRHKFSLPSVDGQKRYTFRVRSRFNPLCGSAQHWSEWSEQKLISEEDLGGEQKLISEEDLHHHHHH


Key:
[1] = molecular target: T1, D1 domain of human IL-2Rγ extracellular …; assay: SPR, mAb captured on anti-hFc, 25 C
Protocol: (§1) Equilibrium dissociation constants (KD values) for IL-2Rγ binding to purified anti-IL2Rγ monoclonal antibodies were determined using a Biacore 4000 instrument equipped with a real-time surface plasmon resonance biosensor. All binding studies were performed in 10 mM HEPES, 150 mM NaCl, 3 mM EDTA, and 0.05% v/v Surfactant Tween-20, pH 7.4 (HBS-ET) running buffer at 25° C. and 37° C. The Biacore sensor surface was first derivatized by amine coupling with a monoclonal mouse anti-human Fc antibody (GE, # BR-1008-39) to capture anti-IL2Rγ monoclonal antibodies.
(§2) The dissociation of monoclonal antibody bound IL2Rγ reagents were monitored for 8-10 minutes in HBS-ET running buffer. Kinetic association (kₐ) and dissociation (kd) rate constants were determined by fitting the real-time sensorgrams to a 1:1 binding model using Scrubber 2.0c curve fitting software. Binding dissociation equilibrium constants (KD) and dissociative half-lives (t_{1/2}) were calculated from the kinetic rate constants as: […]

[2] = molecular target: T1, D1 domain of human IL-2Rγ extracellular …; assay: SPR, mAb captured on anti-hFc, 37 C
Protocol: as §1, §2

[3] = molecular target: T2, D2 domain of human IL2Rγ extracellular …; assay: SPR, mAb captured on anti-hFc, 25 C
Protocol: as §1

[4] = molecular target: T2, D2 domain of human IL2Rγ extracellular …; assay: SPR, mAb captured on anti-hFc, 37 C
Protocol: as §1

Binder	100 nM Ag Bound [1]	100 nM Ag Bound [2]	binding result [2]	100 nM Ag Bound [3]	100 nM Ag Bound [4]	binding result [1]	binding result [3]	Kd [1]	koff [1]	kon [1]	t½ [1]	Kd [2]	koff [2]	kon [2]	t½ [2]
H4H12858P (antibody, human IgG4 S228P, kappa, V domains shown, human IgG4; also called REGN9433) VH: EVQLVESGGDLVQPGGSLRLSCTASGFIFRNYAMNWVRQAPGKGLEWLSGILGSNDNTYYVDSVKGRFTISRDNSRNTLYLQMNSLRAEDSAVYYCAKGDAGGFDYWGQGTLVTVSS VL: DVVMTQSPLSLPVILGQPASISCRSSQSLVSSDGNTYLNWFQQRPGQSPRRLIYKVSNRDSGVPDRFSGSGSGTDFTLKISRVEAEDVGAYYCMQGSYWPPTFGQGTKLEIKR	1 RU	1 RU	no binding (tested: 100 nM)	0 RU	-1 RU										
H4H13538P (antibody, human IgG4 S228P, kappa, V domains shown, human IgG4) VH: EVQLVESGGGLVQPGGSLGLSCAASGFTFSNYAMSWVRQAPGKGLEWVSAVSGGGGGTYYADSVKGRFTISRDNSKNTVLLQMNSLRAEDTAVYYCARGRTGGLDYWGPGTLVTVSS VL: DVVMTQSPLSLPVIFGQPASISCRSSQSLVDSDGNTYLNWLQQRPGQSPRRLIYEVSNRDSGVPDRFSGSGSGTDFTLTISRVEAEDVGIYYCMQGTRWPPTFGGGTKVEIKR	2 RU	2 RU		6 RU	6 RU	no binding (tested: 100 nM)	no binding (tested: 100 nM)								
H4H12908P (antibody, human IgG4 S228P, kappa, V domains shown, human IgG4) VH: EVQLVESGGRLVQPGGSLRLSCEASGFTFSNYGMTWVRQAPGKGLEWVSVISGSDNRKYYAESVKGRFTISRDNSKNTLYLQMNSLRAEDTAVYYCAKLGYSRSSKDFYYGMDVWGQGTTVTVSS VL: not shown	1 RU	0 RU		-1 RU	-1 RU	no binding (tested: 100 nM)									
H4H12899P (antibody, human IgG4 S228P, kappa, V domains shown, human IgG4) VH: QVQLVESGGDLVKPGGSLRLSCATSGFTFSDFYMTWIRQAPGKGLEWISYISNSGSIVKYADSVKGRFTISRDNAKNSLYLQMNSLRAEDTAIYYCARFYGDRWGQGTLVTVSS VL: DIQLTQSPSFLSASVGDRVTITCWASQGISTFLAWYQQKPGKAPKLLIYAASTLQSGVPSRFSGSGSGTDFTLTISSLQPEDFATYHCQQLNNYPWTFGQGTKVEIKR	0 RU	1 RU		-1 RU	0 RU	no binding (tested: 100 nM)									
H4H12900P (antibody, human IgG4 S228P, kappa, V domains shown, human IgG4) VH: QVQLVESGGGLVKPGGSLRLSCEASGFTFNDFYMTWIRQAPGKGLEWIAYISKSGDKMRYADSVKGRFSTSRDNAKNSLSLQMNSLRAEDTAVYYCARFYGDIWGQGTLVTVSS VL: DIQLTQSPSFLSASVGDRVTITCWASQDISSFLVWYQQKPGKAPNLLIYAASALQSGVPSRFSGSGSGTEFTLTISSLQPEDFASYYCEQLNNYPWTFGQGTKVEIKR	0 RU	2 RU		-1 RU	1 RU	no binding (tested: 100 nM)									
H4H12924P2 (antibody, human IgG4 S228P, kappa, V domains shown, human IgG4) VH: EVQLVESGGGLVQPGRSLRLSCAASGFTLEDYAMHWVRQAPGKGLEWVSGISWNRGSTGYADSVKGRFTISRDNAKNSLYLQMTSLRAEDTALYYCAKGFYSMDVWGQGTTVTVSS VL: not shown	1 RU	-1 RU		1 RU	0 RU		no binding (tested: 100 nM)								

Results, then the binder that gave them:

100 nM Ag Bound [1]	100 nM Ag Bound [2]	binding result [2]	100 nM Ag Bound [3]	100 nM Ag Bound [4]	binding result [1]	binding result [3]	Kd [1]	koff [1]	kon [1]	t½ [1]	Kd [2]	koff [2]	kon [2]	t½ [2]	Binder
24 RU	22 RU		5 RU	4 RU		no binding (tested: 100 nM)	57.8 nM	0.00207 s⁻¹	35800 M⁻¹ s⁻¹	6 min	225 nM	0.0105 s⁻¹	46400 M⁻¹ s⁻¹	1.1 min	H4H13544P2 (antibody, human IgG4 S228P, kappa, V domains shown, human IgG4) VH: QLQLQESGPGLVKPSETLSLTCTVSGGSISIKNYYWGWIRQPPGKGLEWIGSIYYSGTTYYNPSLKSRVTISVDTSKNQFSLKLSSVTAADTAVYHCARHGYSYGHGWFDPWGQGTLVTVSS VL: not shown
8 RU	4 RU		5 RU	3 RU	no binding (tested: 100 nM)	no binding (tested: 100 nM)									H4H13545P2 (antibody, human IgG4 S228P, kappa, V domains shown, human IgG4) VH: QVQLQQSGPGLVKPSQTLSLTCDISGDSVSSNIATWNWIRQSPSRGLEWLGRTYYRSKWYKDYAVSVKSRITINPDTSKNQFSLQVNSVTPEDTAVYYCARMTGPRYYFEYWGQGTLVTVSS VL: not shown
2 RU	2 RU		10 RU	7 RU	no binding (tested: 100 nM)	no binding (tested: 100 nM)									H4H13541P (antibody, human IgG4 S228P, kappa, V domains shown, human IgG4) VH: EVQLVESGGGVVRPGGSLRLSCAASGFIFDDYDMSWVRQPPGRGLEWVSGIDWFGGTRGYADSMKGRFTISRDNAKNSLYLQMNSLRVEDTAFYYCARGGAIVGAVTPFDYWGQGTLVTVSS VL: DIQMTQSPSSLSASVGNRVTLSCRASQSINTYLSWYQQRPGKAPKLLIYAASSLQSGVPSRFSGSGAGTDFTLTISSLQPEDFATYYCQQSYSAPLTFGGGTKVEIKR
